The values below come from patent US20070212363A1.

What all share (assay): cell-based or functional assay
The target in assay [1] is HIV-1 JR-FL envelope glycoprotein (Env) (HIV-1 strain JR-FL).
The target in assay [2] is HIV-1 AD8 envelope glycoprotein (Env) (HIV-1 strain AD8).
Assay [3] concerns the target HIV-1 IIIB envelope glycoprotein (Env) (HIV-1 strain IIIB).

On to IgG1 X5 (antibody), for which the Neutralizing activity (percentage) at 100 µg/mL in assay [1] came to 38%; in assay [2], 51%; in assay [3], 84%. Besides, the percentage of maximal infection, U87.CD4.CCR5.CXCR4 cells, 100 µg/mL antibody in assay [1] was determined as 72%; in assay [2] it was 55%; in assay [3], 28%.

On to Fab X5, for which the Neutralizing activity (percentage) at 100 µg/mL was 83% in assay [1], 97% in assay [2] and 100% in assay [3]. Further, the percentage of maximal infection, U87.CD4.CCR5.CXCR4 cells, 100 µg/mL antibody in assay [1] came out at 27%; in assay [2] it was 8.7%; in assay [3], 10%.
